Key:
Conditions in all cases: 5 mM BES pH 7.2, 7-8% (v/v) acetonitrile
HbHNL = target: T1, HbHNL (Hevea brasiliensis, UniProt P52704); assay: spectrophotometric ester hydrolysis at […] nm, Michaelis-Menten fit; assay type: biochemical
T1 construct: gene HNL; full length 257 aa; variant structures 8sni (HNL40), 9clr (HNL71); dimer

SABP2 = target: T2, SABP2 (Nicotiana tabacum, UniProt Q6RYA0); assay: as above; assay type: biochemical
T2 construct: production of the assayed sample not described in the main text
T2 sequence (Q6RYA0 1-260): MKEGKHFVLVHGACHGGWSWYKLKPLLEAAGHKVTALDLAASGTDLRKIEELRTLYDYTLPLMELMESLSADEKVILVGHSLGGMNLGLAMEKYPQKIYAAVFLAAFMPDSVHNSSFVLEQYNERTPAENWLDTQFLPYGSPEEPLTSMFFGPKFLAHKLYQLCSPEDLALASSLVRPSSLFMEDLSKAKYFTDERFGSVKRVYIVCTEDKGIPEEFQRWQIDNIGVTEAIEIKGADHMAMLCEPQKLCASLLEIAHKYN

[1] = tested on: CC(=O)Oc1ccc([N+](=O)[O-])cc1; assay: purified protein

T1 sequence (P52704 whole entry): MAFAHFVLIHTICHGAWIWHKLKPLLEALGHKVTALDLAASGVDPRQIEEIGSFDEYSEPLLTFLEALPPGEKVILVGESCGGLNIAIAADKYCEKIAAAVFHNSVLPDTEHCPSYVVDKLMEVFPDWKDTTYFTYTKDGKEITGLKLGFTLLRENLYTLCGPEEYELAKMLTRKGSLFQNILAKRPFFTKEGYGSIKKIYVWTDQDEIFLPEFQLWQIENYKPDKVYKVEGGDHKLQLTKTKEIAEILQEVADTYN

Row | Molecule | Km (HbHNL) [µM] | Km (SABP2) [µM] | Km [1] [µM] | kcat [1] [s⁻¹] | kcat/Km [1] [M⁻¹ s⁻¹]
1 | CC(=O)Oc1ccc([N+](=O)[O-])cc1 [p-nitrophenyl acetate] | 3000 ± 400 | 2200 ± 200 | – | – | –
2 | HbHNL (Hevea brasiliensis; C81L/E79H/F210I/H103V/I12A/I209G/K236M/L121Y/L146M/L148F/L152F/N104A/T11G/T151K/V106F/V118L) | – | – | 600 ± 200 | 0.00583 ± 0.000167 | 10.7

Source: PMC12400190, “Crystal structures of 40- and 71-substitution variants of hydroxynitrile lyase from rubber tree” (Acta Crystallographica Section D: Structural Biology, 2025)
